In the supplement of paper PMC6379048:

Columns and labels:
Assay in all cases: EC50 of free RNA motif oligo competing protein binding to immobilised probe
CXorf57 = CXorf57 (UniProt Q6NSI4)
Procedure, shortened: (§1)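 HEK293-FT lysate (2.5 mg protein/well) was treated with free RNA oligos (0 nM to 30 μM) for 1 h at 4°C, then with the same oligos on NHS-Sepharose beads for 30 min at 4°C. Bound proteins were quantified by label-free LC-MS/MS relative to the control. EC50 came from a four-parameter log-logistic fit, and Kd is EC50 times a protein-dependent depletion factor.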

TIAL1 = target: T1, TIAL1 (UniProt Q01085)
T1 sequence: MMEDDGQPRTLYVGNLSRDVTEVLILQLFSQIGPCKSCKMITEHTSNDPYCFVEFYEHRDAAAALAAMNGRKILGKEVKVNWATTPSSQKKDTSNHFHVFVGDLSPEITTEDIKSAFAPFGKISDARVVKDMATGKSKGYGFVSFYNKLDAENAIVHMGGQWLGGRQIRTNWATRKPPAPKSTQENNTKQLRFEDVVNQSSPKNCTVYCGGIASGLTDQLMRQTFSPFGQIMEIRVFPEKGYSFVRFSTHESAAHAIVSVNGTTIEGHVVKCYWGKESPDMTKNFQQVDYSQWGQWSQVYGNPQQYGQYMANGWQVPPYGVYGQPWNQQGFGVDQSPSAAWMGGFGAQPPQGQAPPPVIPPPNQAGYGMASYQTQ
Procedure, shortened: as §1

FUBP1 = target: T2, FUBP1 (UniProt Q96AE4)
T2 sequence: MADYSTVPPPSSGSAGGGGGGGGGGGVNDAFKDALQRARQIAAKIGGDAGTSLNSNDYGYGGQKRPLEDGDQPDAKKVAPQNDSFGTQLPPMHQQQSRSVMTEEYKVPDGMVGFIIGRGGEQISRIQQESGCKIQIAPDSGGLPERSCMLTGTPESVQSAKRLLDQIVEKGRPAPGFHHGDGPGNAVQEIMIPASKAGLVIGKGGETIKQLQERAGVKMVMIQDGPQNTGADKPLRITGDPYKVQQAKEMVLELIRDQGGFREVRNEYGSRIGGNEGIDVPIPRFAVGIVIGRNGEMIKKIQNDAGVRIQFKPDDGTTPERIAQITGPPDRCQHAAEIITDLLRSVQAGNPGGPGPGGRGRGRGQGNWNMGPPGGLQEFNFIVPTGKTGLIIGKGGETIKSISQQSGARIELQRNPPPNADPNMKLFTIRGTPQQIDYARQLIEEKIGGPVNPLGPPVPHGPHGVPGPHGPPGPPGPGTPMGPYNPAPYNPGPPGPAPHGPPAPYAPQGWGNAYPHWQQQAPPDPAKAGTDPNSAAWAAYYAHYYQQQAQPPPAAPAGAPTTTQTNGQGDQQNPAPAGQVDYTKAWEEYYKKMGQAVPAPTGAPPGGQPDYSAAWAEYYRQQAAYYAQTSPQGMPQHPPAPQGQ
Procedure, shortened: as §1

CPSF7 = target: T3, CPSF7 (UniProt Q8N684)
T3 sequence: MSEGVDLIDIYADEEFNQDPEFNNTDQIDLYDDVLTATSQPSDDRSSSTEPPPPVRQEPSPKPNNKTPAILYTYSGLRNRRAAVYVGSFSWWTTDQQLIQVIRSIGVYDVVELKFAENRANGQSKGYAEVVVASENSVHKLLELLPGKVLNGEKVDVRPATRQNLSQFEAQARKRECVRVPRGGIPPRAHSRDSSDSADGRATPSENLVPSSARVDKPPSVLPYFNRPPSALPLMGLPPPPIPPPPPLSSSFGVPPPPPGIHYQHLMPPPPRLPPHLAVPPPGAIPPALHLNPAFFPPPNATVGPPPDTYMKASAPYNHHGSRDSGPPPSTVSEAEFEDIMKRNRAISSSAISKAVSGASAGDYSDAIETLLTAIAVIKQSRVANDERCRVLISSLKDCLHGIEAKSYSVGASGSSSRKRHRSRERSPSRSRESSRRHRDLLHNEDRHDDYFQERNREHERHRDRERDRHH
Procedure, shortened: as §1

RPS3A = RPS3A (UniProt P61247)
Procedure, shortened: as §1

SRSF4 = target: T4, SRSF4 (UniProt Q08170)
T4 sequence: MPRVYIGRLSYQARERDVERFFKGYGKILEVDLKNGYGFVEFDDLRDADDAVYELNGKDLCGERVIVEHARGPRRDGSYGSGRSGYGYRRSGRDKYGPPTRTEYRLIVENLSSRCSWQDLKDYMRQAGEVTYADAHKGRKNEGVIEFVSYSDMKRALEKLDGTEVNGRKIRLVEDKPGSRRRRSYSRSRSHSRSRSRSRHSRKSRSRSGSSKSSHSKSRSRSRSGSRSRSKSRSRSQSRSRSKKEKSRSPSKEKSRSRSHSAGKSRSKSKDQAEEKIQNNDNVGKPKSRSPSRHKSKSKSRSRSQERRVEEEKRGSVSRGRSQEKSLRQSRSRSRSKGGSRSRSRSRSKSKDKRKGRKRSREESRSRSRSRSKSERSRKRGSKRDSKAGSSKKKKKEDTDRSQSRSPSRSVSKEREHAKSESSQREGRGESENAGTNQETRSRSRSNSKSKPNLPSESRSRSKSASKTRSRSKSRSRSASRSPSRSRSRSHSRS
Procedure, shortened: as §1

TTC37 = TTC37 (UniProt Q6PGP7)
Sequence of TTC37 (Q6PGP7 whole entry): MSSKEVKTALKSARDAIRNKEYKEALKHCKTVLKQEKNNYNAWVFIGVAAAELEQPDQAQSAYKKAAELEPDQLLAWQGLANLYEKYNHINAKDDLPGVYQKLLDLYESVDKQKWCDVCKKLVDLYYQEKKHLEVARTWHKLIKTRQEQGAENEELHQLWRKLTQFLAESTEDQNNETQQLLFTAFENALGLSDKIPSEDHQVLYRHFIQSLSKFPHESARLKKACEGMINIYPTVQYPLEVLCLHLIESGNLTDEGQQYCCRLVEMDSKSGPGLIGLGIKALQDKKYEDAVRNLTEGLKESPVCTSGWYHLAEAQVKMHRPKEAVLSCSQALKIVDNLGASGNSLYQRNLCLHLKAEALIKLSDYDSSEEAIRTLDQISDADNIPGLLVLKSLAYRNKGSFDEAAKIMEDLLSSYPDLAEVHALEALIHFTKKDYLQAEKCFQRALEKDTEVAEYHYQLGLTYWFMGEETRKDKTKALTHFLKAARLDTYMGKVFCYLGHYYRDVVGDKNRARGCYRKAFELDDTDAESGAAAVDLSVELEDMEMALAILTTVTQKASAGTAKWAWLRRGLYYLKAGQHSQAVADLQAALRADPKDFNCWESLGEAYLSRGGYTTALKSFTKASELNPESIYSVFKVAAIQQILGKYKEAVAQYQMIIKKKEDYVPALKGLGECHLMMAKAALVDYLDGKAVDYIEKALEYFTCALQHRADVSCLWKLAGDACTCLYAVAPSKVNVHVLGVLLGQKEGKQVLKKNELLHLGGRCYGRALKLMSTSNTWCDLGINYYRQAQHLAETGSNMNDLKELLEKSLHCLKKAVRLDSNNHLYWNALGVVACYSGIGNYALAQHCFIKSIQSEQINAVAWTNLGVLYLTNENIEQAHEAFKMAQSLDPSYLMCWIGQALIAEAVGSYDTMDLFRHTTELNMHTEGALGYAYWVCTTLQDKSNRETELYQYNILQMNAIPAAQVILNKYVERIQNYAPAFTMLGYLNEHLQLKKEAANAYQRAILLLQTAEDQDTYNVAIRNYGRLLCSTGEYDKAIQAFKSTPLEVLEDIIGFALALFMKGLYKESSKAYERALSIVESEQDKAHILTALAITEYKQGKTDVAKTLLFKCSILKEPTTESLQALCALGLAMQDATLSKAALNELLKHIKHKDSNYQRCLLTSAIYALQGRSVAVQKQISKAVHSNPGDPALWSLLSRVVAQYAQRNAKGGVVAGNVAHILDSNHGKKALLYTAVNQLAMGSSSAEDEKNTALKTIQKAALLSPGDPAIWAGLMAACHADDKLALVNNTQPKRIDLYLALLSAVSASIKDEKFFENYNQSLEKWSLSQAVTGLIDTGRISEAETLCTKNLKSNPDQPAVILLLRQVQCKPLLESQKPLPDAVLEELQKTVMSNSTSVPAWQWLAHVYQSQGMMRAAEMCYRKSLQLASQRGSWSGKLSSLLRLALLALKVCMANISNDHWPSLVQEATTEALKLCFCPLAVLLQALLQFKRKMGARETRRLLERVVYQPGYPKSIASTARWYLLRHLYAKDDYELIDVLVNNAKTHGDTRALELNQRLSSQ
Procedure, shortened: as §1

Sequence of CXorf57 (Q6NSI4 whole entry): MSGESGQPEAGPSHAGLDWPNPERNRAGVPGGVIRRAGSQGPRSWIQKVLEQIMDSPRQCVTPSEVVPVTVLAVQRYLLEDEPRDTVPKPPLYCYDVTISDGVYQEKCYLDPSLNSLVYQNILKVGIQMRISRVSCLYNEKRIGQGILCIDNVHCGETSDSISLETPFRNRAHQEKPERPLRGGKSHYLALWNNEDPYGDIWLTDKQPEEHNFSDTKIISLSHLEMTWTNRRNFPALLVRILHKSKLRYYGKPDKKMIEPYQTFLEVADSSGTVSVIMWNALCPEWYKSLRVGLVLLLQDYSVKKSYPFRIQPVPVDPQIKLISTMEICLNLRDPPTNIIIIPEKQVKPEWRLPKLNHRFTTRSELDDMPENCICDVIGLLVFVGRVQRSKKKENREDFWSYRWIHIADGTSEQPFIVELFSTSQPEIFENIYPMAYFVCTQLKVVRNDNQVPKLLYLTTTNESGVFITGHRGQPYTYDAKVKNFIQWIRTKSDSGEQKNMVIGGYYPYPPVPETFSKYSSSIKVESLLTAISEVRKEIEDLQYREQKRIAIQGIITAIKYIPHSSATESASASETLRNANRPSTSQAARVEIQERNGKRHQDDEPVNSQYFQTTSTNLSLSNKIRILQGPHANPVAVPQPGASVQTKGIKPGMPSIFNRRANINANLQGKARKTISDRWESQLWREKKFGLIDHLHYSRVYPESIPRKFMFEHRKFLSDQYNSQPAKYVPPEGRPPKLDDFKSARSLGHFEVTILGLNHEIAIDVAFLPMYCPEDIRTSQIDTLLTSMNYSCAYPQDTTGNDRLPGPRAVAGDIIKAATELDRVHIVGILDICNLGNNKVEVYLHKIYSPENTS

Sequence: AAUAAA
- EC50 (CXorf57): 3.56 µM
- EC50 (TIAL1): 0.546 µM
- EC50 (FUBP1): 5.75 µM
- EC50 (CPSF7): 8.82 µM

Sequence: CUGUCCU
- EC50 (RPS3A): 0.106 µM
- EC50 (SRSF4): 0.978 µM

Sequence: UAUUUAU
- EC50 (TTC37): 0.947 µM
